In series [1] the test system is hippocampal cell cultures. To be noted: Iversen et al., 1995; cited from earlier work.
The subject of series [2] is D122 tumor cells (Lewis lung carcinoma). The series can be described thus: Lewis lung carcinoma (D122) i.v. lung metastasis model with i.p. injected Aβ peptides. The series is classed as in vivo, C57/BL mice. To be noted: 20 μg/mouse/injection (Aβ96-110: 10 μg), 7 times during two weeks before and 7 times after D122 i.v. injection; examined after 21 days.
Description: The intravenous (i.v.) model. […] D122 or B16 tumor cells were injected i.v. into Tg-APP, Tg-APP/SOD or parental mice and metastasis was evaluated after 30-37 days. In certain long-term experiments the evaluation was performed over a period of 120-140 days post injection of the tumor cells.
Aβ peptides in phosphate buffered saline (PBS) were injected i.p. into C57/BL mice 4-7 times (7-10 μg each time or 10-20 μg each time in other experiments) during two weeks preceding D122 or B16 tumor cells injection and seven times every second day following D122 or B16 tumor cells injection. Control mice were i.p. injected with PBS. Mice were sacrificed 20-21 days following injection of D122 or B16 tumor cells by injecting 20 mg/mouse Xylazine (i.p.) and lungs were weighed. Lungs were fixed, stained in Bouin's solution and metastases counted. For histology, lungs were fixed in buffered formalin and histological sections were prepared and stained with Hematoxylin-Eosin. Each experimental group included 7-12 animals, and experiments were repeated twice.
D122 tumor cells were injected i.v. to the tail of C57/BL mice. […] All together 77 μg of AP 1-42 were injected into each mouse. After 21 days tumor weight and number of metastases in the lungs were examined.
D122 tumor cells were injected intravenously to the tail of C57/BL mice. […]

No end group written: not given here.

The text below walks through data of patent US20040072754A1, “Amyloid precursor protein and APP-deprived peptides inhibit tumor growth and metastasis” (priority 2000, published 2004).

For the substance “Aβ1-28: Aβ sequence fragment tested for neurotoxicity in the literature”, the “toxicity to neuronal cells” value in series [1] was “non-toxic”.
Turning to “Aβ1-38: Aβ sequence fragment tested for neurotoxicity in the literature”, the “toxicity to neuronal cells” value in series [1] was “induced toxicity”.
Take “Aβ1-40: Aβ sequence fragment tested for neurotoxicity in the literature”: the “toxicity to neuronal cells” value in series [1] is “induced toxicity”.
As to “Aβ25-35: Aβ sequence fragment tested for neurotoxicity in the literature (GSNKGAIIGLM; Amyloid-beta protein 42; UniProt P05067 696-706, looked up, fragment)”, in series [1], the “toxicity to neuronal cells” value is on record as “induced toxicity”.
As to “NWCKRGRKQCKTHPH (cysteine pairing not given here) [Aβ96-10]”, in series [2], the “reduction of the number of metastases in the lungs” value was 9%.
